These results are taken from doi:10.1101/2021.12.09.471704.

Data set [1] deals with T1, SiAgo (complex subunit);SiAga1 (complex subunit) (Sulfolobus islandicus M164;Sulfolobus …, UniProt C4KI01;C4KI00 1-459;1-243, |).
T1 sequence 1: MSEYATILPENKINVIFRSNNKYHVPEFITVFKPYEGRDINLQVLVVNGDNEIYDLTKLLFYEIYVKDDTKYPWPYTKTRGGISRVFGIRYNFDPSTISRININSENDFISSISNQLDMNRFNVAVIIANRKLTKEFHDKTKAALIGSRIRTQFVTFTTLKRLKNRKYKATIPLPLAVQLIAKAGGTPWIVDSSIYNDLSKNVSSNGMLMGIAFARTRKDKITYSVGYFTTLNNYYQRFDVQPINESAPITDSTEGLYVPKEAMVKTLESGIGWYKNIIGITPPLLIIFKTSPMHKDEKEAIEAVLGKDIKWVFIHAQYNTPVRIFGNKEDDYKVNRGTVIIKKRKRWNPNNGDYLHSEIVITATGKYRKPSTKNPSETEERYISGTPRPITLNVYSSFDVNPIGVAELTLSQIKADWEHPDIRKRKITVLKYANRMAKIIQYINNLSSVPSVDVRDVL
T1 sequence 2: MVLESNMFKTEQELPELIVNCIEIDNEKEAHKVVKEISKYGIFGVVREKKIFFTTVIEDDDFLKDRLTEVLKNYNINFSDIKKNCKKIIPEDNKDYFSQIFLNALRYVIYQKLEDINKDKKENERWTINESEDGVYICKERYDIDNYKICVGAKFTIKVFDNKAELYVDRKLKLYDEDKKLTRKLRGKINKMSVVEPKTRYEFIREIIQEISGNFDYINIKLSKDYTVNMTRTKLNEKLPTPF
Description: EMSA. For orientation: A gel shift assay detects complexes by their altered migration in electrophoresis.

The target in data set [2] is T2, SiAgo M1;SiAga1 (complex subunit) (Sulfolobus islandicus M164;Sulfolobus …, UniProt C4KI01;C4KI00 1-459;1-243, K142A|).
T2 sequence 1: T1 sequence 1 with K142A
T2 sequence 2: T1 sequence 2
Description: EMSA.

The target in data set [3] is T3, SiAgo M2;SiAga1 (complex subunit) (Sulfolobus islandicus M164;Sulfolobus …, UniProt C4KI01;C4KI00 1-459;1-243, K183A|).
T3 sequence 1: T1 sequence 1 with K183A
T3 sequence 2: T1 sequence 2
Description: EMSA.

For data set [4], the target named is T4, SiAgo (Sulfolobus islandicus M164, UniProt C4KI01 1-459).
T4 sequence: T1 sequence 1
Description: EMSA.

Data set [5] has as its target T1, SiAgo (complex subunit);SiAga1 (complex …). Description: competition.
The target is the same in data set [6]. Description: EMSA. This is another data set of the same source.
Data set [7] addresses T2, SiAgo M1;SiAga1 (complex subunit). Description: EMSA. This is another data set of the same source.
The target in data set [8] is T3, SiAgo M2;SiAga1 (complex subunit). Description: EMSA. This is another data set of the same source.

Numbering of substitutions follows the chain as printed. Like-named read-outs stand apart in the source and are kept apart here.

B1: 5P-RNA (ssRNA)
RNA: UCAAAGCUUAGAUACCCUGGA
modifications: 5' phosphate
As for B1, the binding result in data set [1], in data set [2], in data set [3] and in data set [4] was “binds” in each case.

B2: guide 5P-RNA + TRNA competitor (mixed)
RNA 1: UCAAAGCUUAGAUACCCUGGA
RNA 2: CCUCCAGGGUAUCUAAGCUUUGAA
modifications: guide 5' phosphate
For B2, in data set [5], the binding result was “binds”.

B3: guide 5P-RNA + TRNA (mixed)
RNA 1: UCAAAGCUUAGAUACCCUGGA
RNA 2: CCUCCAGGGUAUCUAAGCUUUGAA
modifications: guide 5' phosphate
For B3, in data set [6], the binding result is recorded as “binds”.

B4: guide 5P-RNA + TDNA competitor (mixed)
RNA: UCAAAGCUUAGAUACCCUGGA
DNA: CCTCCAGGGTATCTAAGCTTTGAA
modifications: guide 5' phosphate
B4: in data set [5], the binding result was “binds”.

B5: guide 5P-RNA + TDNA (mixed)
RNA: UCAAAGCUUAGAUACCCUGGA
DNA: CCTCCAGGGTATCTAAGCTTTGAA
modifications: guide 5' phosphate
On to B5, for which the binding result in data set [6], in data set [7] and in data set [8] was “binds” each time.
